Assays:
[1] = molecular target: T1, Full length untagged human MDM2 (Murine double minute 2) (human, UniProt Q00987 1-491); test: SPR
[2] = molecular target: T1, Full length untagged human MDM2 (Murine …); test: atomic force spectroscopy

T1 sequence (Q00987 whole entry): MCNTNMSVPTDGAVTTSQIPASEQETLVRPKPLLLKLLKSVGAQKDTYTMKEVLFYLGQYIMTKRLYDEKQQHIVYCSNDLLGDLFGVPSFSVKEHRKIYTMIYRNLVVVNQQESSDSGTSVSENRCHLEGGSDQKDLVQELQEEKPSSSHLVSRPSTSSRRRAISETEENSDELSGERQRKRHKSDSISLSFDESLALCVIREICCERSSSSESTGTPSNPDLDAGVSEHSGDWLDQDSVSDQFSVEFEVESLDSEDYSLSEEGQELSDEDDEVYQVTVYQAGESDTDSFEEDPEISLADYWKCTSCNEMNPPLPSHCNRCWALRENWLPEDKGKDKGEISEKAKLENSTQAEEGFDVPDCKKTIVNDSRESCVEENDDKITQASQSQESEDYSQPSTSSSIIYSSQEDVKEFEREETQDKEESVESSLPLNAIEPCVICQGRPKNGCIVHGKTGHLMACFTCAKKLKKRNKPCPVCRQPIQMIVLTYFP

Kd [1]: 2000 nM
koff [2]: 0.02 ± 0.01 s⁻¹
B1: Full length N-terminal glutathione S-transferase (GST)-tagged human MDM4 (Murine double minute 4) (natural protein, UniProt O15151 1-490, looked up)
chain: MTSFSTSAQCSTSDSACRISPGQINQVRPKLPLLKILHAAGAQGEMFTVKEVMHYLGQYIMVKQLYDQQEQHMVYCGGDLLGELLGRQSFSVKDPSPLYDMLRKNLVTLATATTDAAQTLALAQDHSMDIPSQDQLKQSAEESSTSRKRTTEDDIPTLPTSEHKCIHSREDEDLIENLAQDETSRLDLGFEEWDVAGLPWWFLGNLRSNYTPRSNGSTDLQTNQDVGTAIVSDTTDDLWFLNESVSEQLGVGIKVEAADTEQTSEEVGKVSDKKVIEVGKNDDLEDSKSLSDDTDVEVTSEDEWQCTECKKFNSPSKRYCFRCWALRKDWYSDCSKLTHSLSTSDITAIPEKENEGNDVPDCRRTISAPVVRPKDAYIKKENSKLFDPCNSVEFLDLAHSSESQETISSMGEQLDNLSEQRTDTENMEDCQNLLKPCSLCEKRPRDGNIIHGRTGHLVTCFHCARRLKKAGASCPICKKEIQLVIKVFIA
